Data from the supplement of paper PMC10724198.
± gives the standard deviation of the averaged measurements.

Tests used:
Saccharomyces cerevisiae [1] = experiment: protein stability index of tFT-peptide fusion (C-terminal peptide) (PSI (0-1 scale)); higher = more stable (slower turnover)
Method: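 MPS profiling in S. cerevisiae of the tFT-X12 degron library: putative degron peptides plus stable controls, 12 aa, fused to the C-terminus of a sfGFP-mCherry timer. Cells are FACS-sorted into 8 mCherry/sfGFP bins and deep-sequenced. PSI runs from 0 (unstable) to 1 (stable). Backgrounds are wild type, das1Δ and doa10Δ at 30 °C, and wild type, das1Δ, cdc34-1 and cdc53-1 at 37 °C; 2-3 technical replicates each.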

Saccharomyces cerevisiae [2] = experiment: as above; conditions: genetic background: wild type; temperature: 30 C
[3] = genetic background: cdc34-1, temperature: 37 C
[4] = genetic background: cdc53-1, temperature: 37 C
[5] = genetic background: das1 deletion, temperature: 30 C
[6] = genetic background: das1 deletion, temperature: 37 C
[7] = genetic background: doa10 deletion, temperature: 30 C
[8] = genetic background: wild type, temperature: 30 C
[9] = genetic background: wild type, temperature: 37 C
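Note: PSI is a weighted mean of sequencing reads over stability bins, variants kept only with over 10 reads, mCherry proximal and sfGFP distal, peptide attached via GGGS linker.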

| Sequence | protein stability index (Saccharomyces cerevisiae [1]; [3]) | protein stability index (Saccharomyces cerevisiae [1]; [4]) | protein stability index (Saccharomyces cerevisiae [1]; [5]) | protein stability index (Saccharomyces cerevisiae [1]; [6]) | protein stability index (Saccharomyces cerevisiae [1]; [7]) | protein stability index (Saccharomyces cerevisiae [1]; [8]) | protein stability index (Saccharomyces cerevisiae [1]; [9]) | protein stability index (Saccharomyces cerevisiae [2]) |
| --- | --- | --- | --- | --- | --- | --- | --- | --- |
| VVPWLGYVSCFS | 0.452 ± 0.031 | 0.487 ± 0.027 | 0.357 ± 0.029 | 0.521 ± 0.0067 | 0.324 ± 0.0094 | 0.366 ± 0.032 | 0.5026 ± 0.0044 | 0.465 ± 0.041 |
| FSLSLFPYPFSL | 0.698 ± 0.022 | 0.764 ± 0.045 | 0.686 ± 0.02 | 0.765 ± 0.011 | 0.686 ± 0.01 | 0.672 ± 0.021 | 0.755 ± 0.018 | 0.755 ± 0.03 |
| GCCFVCSVFWWG | 0.407 ± 0.0055 | 0.493 ± 0.0055 | 0.348 ± 0.031 | 0.528 ± 0.0081 | 0.327 ± 0.014 | 0.353 ± 0.015 | 0.507 ± 0.011 | 0.431 ± 0.011 |
| CGSFWVNVLCAV | 0.402 ± 0.01 | 0.422 ± 0.018 | 0.334 ± 0.035 | 0.497 ± 0.01 | 0.2657 ± 0.0011 | 0.299 ± 0.034 | 0.444 ± 0.0067 | 0.402 ± 0.013 |
| PHLDLYRLSALI | 0.705 ± 0.01 | 0.751 ± 0.016 | 0.668 ± 0.032 | 0.79 ± 0.012 | 0.329 ± 0.031 | 0.366 ± 0.021 | 0.57 ± 0.021 | 0.47 ± 0.0056 |
| LLCLCSLPVFAS | 0.317 ± 0.014 | 0.319 ± 0.029 | 0.26 ± 0.046 | 0.4118 ± 0.0028 | 0.223 ± 0.009 | 0.27 ± 0.018 | 0.368 ± 0.0076 | 0.356 ± 0.016 |
| LFFRLLCAFLFL | 0.532 ± 0.041 | 0.452 ± 0.012 | 0.499 ± 0.047 | 0.584 ± 0.017 | 0.578 ± 0.04 | 0.501 ± 0.012 | 0.5353 ± 0.0031 | 0.529 ± 0.046 |
| LILLTFTLRVPV | 0.192 ± 0.0027 | 0.381 ± 0.046 | 0.233 ± 0.02 | 0.4028 ± 0.0024 | 0.2056 ± 0.001 | 0.227 ± 0.026 | 0.362 ± 0.018 | 0.361 ± 0.034 |
| VFLLCLGFLVFS | 0.263 ± 0.011 | 0.341 ± 0.046 | 0.258 ± 0.025 | 0.4083 ± 0.0018 | 0.241 ± 0.024 | 0.275 ± 0.02 | 0.3886 ± 0.0038 | 0.336 ± 0.038 |
| TSFSSGEALGVG | 0.437 ± 0.0066 | 0.503 ± 0.021 | 0.442 ± 0.0075 | 0.5 ± 0.0091 | 0.4553 ± 0.0011 | 0.445 ± 0.013 | 0.48763 ± 3.8e-05 | 0.483 ± 0.01 |
| RLLSIFKILHVG | 0.526 ± 0.0063 | 0.6593 ± 0.0037 | 0.638 ± 0.013 | 0.705 ± 0.014 | 0.0881 ± 0.028 | 0.0968 ± 0.0051 | 0.1507 ± 0.00028 | 0.188 ± 0.036 |
| PCVCFIILGMLS | 0.42 ± 0.013 | 0.515 ± 0.012 | 0.322 ± 0.035 | 0.563 ± 0.01 | 0.285 ± 0.013 | 0.308 ± 0.016 | 0.52 ± 0.021 | 0.449 ± 0.012 |
| MYESIRILVNKV | 0.62 ± 0.015 | 0.707 ± 0.016 | 0.62 ± 0.022 | 0.697 ± 0.015 | 0.226 ± 0.0021 | 0.326 ± 0.038 | 0.491 ± 0.02 | 0.457 ± 0.052 |
| STNMDNRIRTLA | 0.659 ± 0.011 | 0.714 ± 0.012 | 0.638 ± 0.031 | 0.72 ± 0.013 | 0.311 ± 0.0059 | 0.356 ± 0.023 | 0.556 ± 0.017 | 0.431 ± 0.0013 |
| RFLPYLPTPLSP | 0.664 ± 0.026 | 0.7203 ± 0.0043 | 0.506 ± 0.016 | 0.5974 ± 0.0048 | 0.502 ± 0.016 | 0.513 ± 0.014 | 0.568 ± 0.011 | 0.52 ± 0.031 |
| FGVRRSFVVFVV | 0.3827 ± 0.00079 | 0.456 ± 0.011 | 0.337 ± 0.033 | 0.556 ± 0.0058 | 0.0834 ± 0.011 | 0.0934 ± 0.015 | 0.107 ± 0.014 | 0.191 ± 0.023 |
| LVFAFFLLSFFI | 0.478 ± 0.035 | 0.554 ± 0.015 | 0.478 ± 0.047 | 0.549 ± 0.00087 | 0.481 ± 0.025 | 0.466 ± 0.027 | 0.541 ± 0.02 | 0.425 ± 0.0078 |
| TDVLLLQLLISV | 0.202 ± 0.021 | 0.228 ± 0.059 | 0.225 ± 0.028 | 0.338 ± 0.018 | 0.184 ± 0.007 | 0.219 ± 0.032 | 0.316 ± 0.0075 | 0.311 ± 0.012 |
| VYWRGLHLQRLL | 0.681 ± 0.036 | 0.7679 ± 0.0013 | 0.652 ± 0.033 | 0.775 ± 0.024 | 0.26 ± 0.0053 | 0.29 ± 0.028 | 0.4753 ± 0.0016 | 0.418 ± 0.05 |
| LHIHGAGIVCAG | 0.549 ± 0.026 | 0.584 ± 0.029 | 0.368 ± 0.032 | 0.5788 ± 0.001 | 0.318 ± 0.0044 | 0.374 ± 0.029 | 0.5491 ± 0.0022 | 0.467 ± 0.028 |

| Sequence | protein stability index (Saccharomyces cerevisiae [1]; [3]) | protein stability index (Saccharomyces cerevisiae [1]; [4]) | protein stability index (Saccharomyces cerevisiae [1]; [5]) | protein stability index (Saccharomyces cerevisiae [1]; [6]) | protein stability index (Saccharomyces cerevisiae [1]; [7]) | protein stability index (Saccharomyces cerevisiae [1]; [8]) | protein stability index (Saccharomyces cerevisiae [1]; [9]) | protein stability index (Saccharomyces cerevisiae [2]) |
| --- | --- | --- | --- | --- | --- | --- | --- | --- |
| PLPSEKAPTLLL | 0.686 ± 0.019 | 0.735 ± 0.01 | 0.637 ± 0.0092 | 0.736 ± 0.036 | 0.636 ± 0.027 | 0.6384 ± 0.0045 | 0.718 ± 0.0072 | 0.583 ± 0.15 |
| LVSCGNFLVFCF | 0.299 ± 0.0056 | 0.311 ± 0.025 | 0.234 ± 0.021 | 0.387 ± 0.0079 | 0.211 ± 0.0058 | 0.234 ± 0.013 | 0.355 ± 0.0037 | 0.324 ± 0.0072 |
| IRACGCSFLWVC | 0.465 ± 0.048 | 0.63 ± 0.01 | 0.5 ± 0.026 | 0.678 ± 0.0079 | 0.1113 ± 0.00066 | 0.106 ± 0.0056 | 0.118 ± 0.015 | 0.192 ± 0.035 |
| LPTVSRPGALIC | 0.562 ± 0.016 | 0.689 ± 0.032 | 0.626 ± 0.033 | 0.69 ± 0.011 | 0.144 ± 0.0049 | 0.192 ± 0.02 | 0.34 ± 0.038 | 0.253 ± 0.013 |
| RWTKMNNLIIEF | 0.693 ± 0.0083 | 0.744 ± 0.0087 | 0.667 ± 0.013 | 0.742 ± 0.042 | 0.678 ± 0.012 | 0.648 ± 0.025 | 0.699 ± 0.026 | 0.7466 ± 0.0064 |
| LGRLDYKRMKRA | 0.7464 ± 0.0014 | 0.748 ± 0.024 | 0.641 ± 0.033 | 0.7434 ± 0.0068 | 0.477 ± 0.017 | 0.51 ± 0.021 | 0.618 ± 0.046 | 0.533 ± 0.076 |
| WFVLYAEVMGFW | 0.205 ± 0.041 | 0.325 ± 0.043 | 0.241 ± 0.037 | 0.491 ± 0.09 | 0.207 ± 0.029 | 0.231 ± 0.042 | 0.409 ± 0.024 | 0.349 ± 0.0052 |
| LCYVLLWLLCRS | 0.45 ± 0.017 | 0.516 ± 0.049 | 0.349 ± 0.024 | 0.512 ± 0.0074 | 0.33 ± 0.0069 | 0.353 ± 0.026 | 0.501 ± 0.033 | 0.448 ± 0.027 |
| PFIPLLLAPALA | 0.4032 ± 0.0011 | 0.409 ± 0.0068 | 0.297 ± 0.036 | 0.458 ± 0.0089 | 0.275 ± 0.0074 | 0.307 ± 0.023 | 0.4205 ± 0.00058 | 0.441 ± 0.1 |
| VYKSTHKIYILT | 0.609 ± 0.011 | 0.729 ± 0.023 | 0.53 ± 0.011 | 0.6774 ± 0.0066 | 0.318 ± 0.0091 | 0.364 ± 0.028 | 0.5493 ± 0.0012 | 0.45 ± 0.022 |
| VSCYYVFLIPFW | 0.463 ± 0.011 | 0.6 ± 0.036 | 0.414 ± 0.038 | 0.57839 ± 0.00033 | 0.408 ± 0.018 | 0.409 ± 0.017 | 0.56 ± 0.0097 | 0.484 ± 0.02 |
| GGYCQMFFLYFR | 0.0593 ± 0.039 | 0.0464 ± 0.018 | 0.0923 ± 0.042 | 0.0948 ± 0.0031 | 0.575 ± 0.021 | 0.0833 ± 0.0047 | 0.0907 ± 0.031 | 0.141 ± 0.021 |
| VLLCGCVWLWWG | 0.437 ± 0.034 | 0.507 ± 0.006 | 0.371 ± 0.038 | 0.5248 ± 0.004 | 0.349 ± 0.013 | 0.364 ± 0.014 | 0.5013 ± 0.0039 | 0.4494 ± 0.0012 |
| SRARIRLPRILS | 0.648 ± 0.033 | 0.71 ± 0.0083 | 0.661 ± 0.026 | 0.72403 ± 0.00037 | 0.208 ± 0.0047 | 0.225 ± 0.052 | 0.494 ± 0.015 | 0.333 ± 0.024 |
| WVGWVVVLGCVG | 0.373 ± 0.027 | 0.42 ± 0.012 | 0.29 ± 0.026 | 0.47 ± 0.013 | 0.25152 ± 0.00025 | 0.282 ± 0.018 | 0.449 ± 0.022 | 0.489 ± 0.013 |
| ASWRYMFPVTLG | 0.576 ± 0.031 | 0.574 ± 0.045 | 0.555 ± 0.039 | 0.685 ± 0.031 | 0.383 ± 0.021 | 0.306 ± 0.039 | 0.4618 ± 0.0041 | 0.367 ± 0.032 |
| YVVCFFFKLFYF | 0.271 ± 0.012 | 0.364 ± 0.024 | 0.299 ± 0.025 | 0.4172 ± 0.0025 | 0.256 ± 0.0065 | 0.244 ± 0.025 | 0.341 ± 0.024 | 0.382 ± 0.046 |
| VCPCCPYVMIAG | 0.598 ± 0.061 | 0.641 ± 0.04 | 0.498 ± 0.027 | 0.647 ± 0.0012 | 0.318 ± 0.0013 | 0.336 ± 0.043 | 0.494 ± 0.0062 | 0.489 ± 0.018 |
| LPPPYSPRLFHN | 0.552 ± 0.065 | 0.7103 ± 0.0065 | 0.699 ± 0.014 | 0.755 ± 0.022 | 0.146 ± 0.016 | 0.166 ± 0.016 | 0.265 ± 0.01 | 0.241 ± 0.1 |
